The series addresses recombinant human acid alpha glucosidase (rhGAA), 110 kDa precursor.

B1: recombinant Aspergillus oryzae alkaline protease expressed in Yarrowia lipolytica (strains OXYY2184 and OXYY2122), mature form with linker and His tag (protein)
chain: GLTTQKSAPWGLGSISHKGQQSTDYIYDTSAGEGTYAYVVDSGVNVDHEEFEGRASKAYNAAGGQHVDSIGHGTHVSGTIAGKTYGIAKKASILSVKVFQGESSSTSVILDGFNWAANDIVSKKRTSKAAINMSLGGGYSKAFNDAVENAFEQGVLSVVAAGNENSDAGQTSPASAPDAITVAAIQKSNNRASFSNFGKVVDVFAPGQDILSAWIGSSSATNTISGTSMATPHIVGLSLYLAALENLDGPAAVTKRIKELATKDVVKDVKGSPNLLAYNGNASGGGHHHHHHHHHH
For B1, the “processing of the 110 kDa rhGAA precursor in culture supernatant of the co-expressing strain OXYY2122 (SDS-PAGE and immunoblot)” value was “This processing was complete; no 110 kDa form was detected”; the “proteolysis of rhGAA to the 95 kDa form (weight:weight ratio 200:1 total protein:protease, 16 h at 30 C; SDS-PAGE)” value is “resulted in a full proteolysis to the 95 kDa product”.

(Values after patent US20130243746.)
